Experimental data reported in patent US20250258173A1 (FUJIREBIO, published 2025).
Read-outs that look alike come from different tables or passages of the source.

How the values were obtained:
[1] = biological target: T1, recombinant N protein of SARS-CoV-2 (whole length, 419 amino acids) (SARS-CoV-2, UniProt P0DTC9 1-419)
T1 construct: also called SARS-CoV-2 N protein; SARS-CoV-2 nucleocapsid protein

[2] = biological target: T1, recombinant N protein of SARS-CoV-2 …; remark: listed apart in the source
[3] = biological target: T1, recombinant N protein of SARS-CoV-2 …; remark: listed apart in the source
[4] = biological target: T1, recombinant N protein of SARS-CoV-2 …; remark: listed apart in the source

B1: anti-N protein antibody C12 (antibody, V domains shown)
VH: EVQLQESGGGLVRPGGSLKLSCAASGFTFSDYYMYWVRQTPEKRLEWVATISDGGRYSYYPDSVKGRFTVSRDNAKNNLYLQMSSLKSEDTAMYYCVRDRYDGWGSDFDVWGAGTTVTVS
VL: DVQITQSPSSMYASLGERVTITCKASQDIKSYLSWYQQKPWKSPKTLIYYATSLADGVPSRFSGSGSGQDYSLTISSLESDDTATYYCLQHGESPWTFGGGTKLEIKR
- luminescence amount ratio (10 ng/mL/0 ng/mL) [1]: 847
- luminescence amount ratio (10 ng/mL/0 ng/mL) [2]: 22.8
- luminescence amount ratio (10 ng/mL/0 ng/mL) [3]: 52.8
- luminescence amount ratio (10 ng/mL/0 ng/mL) [4]: 1.3
